{
  "source": "paper PMC5027585",
  "about": "“TSPO ligands stimulate ZnPPIX transport and ROS accumulation leading to the inhibition of P. falciparum growth in human blood” (Scientific Reports, 2016)",
  "proteins": {"B1": {"name": "TranSlocator PrOtein 2 (TSPO2) (natural protein, human (endogenous in red blood cells), UniProt Q5TGU0 1-170, looked up)", "chain": "MRLQGAIFVLLPHLGPILVWLFTRDHMSGWCEGPRMLSWCPFYKVLLLVQTAIYSVVGYASYLVWKDLGGGLGWPLALPLGLYAVQLTISWTVLVLFFTVHNPGLALLHLLLLYGLVVSTALIWHPINKLAALLLLPYLAWLTVTSALTYHLWRDSLCPVHQPQPTEKSD", "notes": "TSPO2, human, second TSPO isoform, endogenous in mature red blood cells; detected with a rabbit antibody against the 13 C-terminal residues of hTSPO2; also called hTSPO2; source: endogenous, human red blood cell membranes (ghosts) or Triton X-100 lysate of healthy and P. falciparum-infected RBCs"}},
  "biological_target": "the molecule itself",
  "test": "SDS-PAGE and immunoblot (SDS-resistant forms); ghosts of healthy and infected RBCs in 5P8 buffer, solubilised in 1% Triton X-100, denaturing SDS-PAGE, immunoblot; oligomeric state read from the size of the bands",
  "note": "Values joined by “and” are separate entries in the source; they are usually repeats but may differ in a detail not shown here. Identical values can stand only once.",
  "data": [
    {"protein": "B1", "values": [
      {"measurement": "stoichiometry N", "result": "4 and 2"}
    ]}
  ]
}
